Columns and labels:
Assay in all cases: ELISA
[1] = target: T1, E. coli (UTI89) FimH lectin domain truncate (Escherichia coli UTI89, strain)
T1 chain: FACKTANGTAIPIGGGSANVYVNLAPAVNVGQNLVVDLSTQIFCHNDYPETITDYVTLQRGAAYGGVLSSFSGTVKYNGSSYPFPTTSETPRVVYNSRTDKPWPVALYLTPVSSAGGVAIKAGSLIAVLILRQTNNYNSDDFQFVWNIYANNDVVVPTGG

[2] = target: T2, K. pneumoniae (TOP52) FimH lectin domain truncate (Klebsiella pneumoniae TOP52, strain)
T2 chain: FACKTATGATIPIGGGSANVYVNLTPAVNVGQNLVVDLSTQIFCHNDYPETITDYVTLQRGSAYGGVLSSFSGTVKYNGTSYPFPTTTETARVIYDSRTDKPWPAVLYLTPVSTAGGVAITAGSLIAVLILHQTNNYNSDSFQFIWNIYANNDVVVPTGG

[3] = target: T3, E. coli FmlH lectin domain (Escherichia coli UTI89 (strain from PDB …))
T3 chain: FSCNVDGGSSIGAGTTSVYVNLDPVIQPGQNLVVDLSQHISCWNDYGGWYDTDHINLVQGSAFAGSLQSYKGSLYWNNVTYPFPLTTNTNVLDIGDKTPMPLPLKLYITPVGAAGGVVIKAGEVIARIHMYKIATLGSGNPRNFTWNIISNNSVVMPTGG

B1: Ec3 B7 mAb (chimeric murine/human IgG) (antibody, V domains shown)
VH: EVQLQQPGAELVRPGASVKMSCKASGYTFTIYNLHWVKQTPRQGLEWIGTIYPGDGDTSYNQKFKGKATLTVDKSSSTAYMQLSNLTSEDSAVYFCAREGDYGPWFAYWGQGTLVTVSA
VL: QIVLTQSPAIMSASPGEKVTMTCRASSSVSSSYLHWYQQKSGASPKLWIYSSSNLASGVPARFSGSGSGTSYSLTINSVEAEDAATYYCQHYGSYPLTFGGGTKLEIK
B1: binds [1].

B2: Kp2 2C07 mAb (chimeric murine/human IgG) (antibody, V domains shown)
VH: EVKLVESGEGLVKPGGSLKLSCAASGFTFSSYAMSWVRQTPEKRLDWVAYISSGGDHIYYADTVKGRFTISRDNARNTLYLQMSSLKSEDTAMYYCTRDTGYYVSRYFDVWGTGTTVTVSS
VL: DIVMTQSQKFMSTSVGDRVSVTCKASQNVVTNVAWYQQKSGQSPKVVIYSASFRSSGVPDRFTGSGSGTDFTLTISNVQSEDLAEYFCHQYNSHPLTFGGGTKLEIK
B2: binds [2]; binds [1]; no binding [3].

B3: Kp1 2H04 mAb (chimeric murine/human IgG) (antibody, V domains shown)
VH: EVQLQQSGAELVKPGASVKLSCKASGYTFTSYWMHWVKQRPGQGLEWIGLIHPNSSSTYYNEKFKTRATLTVDKSSSTAYMQLSSLTSEDSAVYYCARLGYGNSYWYFDVWGTGTTVTVSS
VL: QIVLTQSPALMAASPGEKVTITCSVSSSISSSNLHWYQQKSETSPKPWIYGTSNLASGVPIRFSGSGSGTSYSLTISSLEAEDAATYYCQQWRSYPWTFGGGTKLEIK
B3: binds [2]; binds [1].

B4: Ec1 F7 mAb (chimeric murine/human IgG) (antibody, V domains shown)
VH: EVQLQQPGPVLVKPGPSVKISCKASGFTFTDYFIHWVKQSHGKSLEWIGLVSPYNGGTYYNQQFKGKATLTVDTSSSTAYMDLNSLTSEDSAVYYCTRLLRGYWYFDVWGTGTTVTVSS
VL: QIVLTQSPALMAASPGEKVTITCSVSSSIGSSNLHWYQQKSETSPKPWIYGTSNLASGVPVRFSGSGSGTSYSLTISSMEAEDAATYYCQQWSTYPYTFGGGTKLEIK
B4: binds [2]; binds [1].

— article PMC11661314 (bioRxiv, 2024)
